Experimental data from patent US20180207269A1.
Values belong to the molecule of their own block, whether it stands above or below them.

Experiments:
[1] = biological target: CD166 (activated leukocyte cell adhesion molecule, ALCAM) on human cells (human) (UniProt Q13740); assay: cell-based or functional assay
[2] = biological target: CD166 (activated leukocyte cell adhesion molecule, ALCAM) on human cells (human) (UniProt Q13740); assay: flow cytometry, ILT3Fc-FITC on control-virus infected H9 cells
[3] = biological target: CD166 (activated leukocyte cell adhesion molecule, ALCAM) on human cells (human) (UniProt Q13740); assay: flow cytometry, CD3-gated T cells of a healthy donor (low or no ILT3L)
[4] = biological target: CD166 (activated leukocyte cell adhesion molecule, ALCAM) on human cells (human) (UniProt Q13740); assay: flow cytometry, CD4-gated T helper cells of a healthy donor (low or no ILT3L)
[5] = biological target: CD166 (activated leukocyte cell adhesion molecule, ALCAM) on human cells (human) (UniProt Q13740); assay: flow cytometry, ILT3Fc-FITC on H9 cells with CD166 knocked down by shRNA adeno-virus
[6] = biological target: CD166 (activated leukocyte cell adhesion molecule, ALCAM) on human cells (human) (UniProt Q13740); assay: flow cytometry, Wild-Type H9 cells, double staining anti-CD166-PE + ILT3.Fc-FITC
[7] = biological target: CD166 (activated leukocyte cell adhesion molecule, ALCAM) on human cells (human) (UniProt Q13740); assay: flow cytometry, CD3+ T cells, Control Treatment, cultured w/o ILT3Fc, stained with ILT3Fc-FITC
[8] = biological target: CD166 (activated leukocyte cell adhesion molecule, ALCAM) on human cells (human) (UniProt Q13740); assay: flow cytometry, CD3+ T cells triggered with PWM (0.05ug/ml) w/o ILT3Fc, stained with ILT3Fc-FITC
[9] = biological target: CD166 (activated leukocyte cell adhesion molecule, ALCAM) on human cells (human) (UniProt Q13740); assay: flow cytometry, CD3+ T cells triggered with CD3/CD28 (5ug/ml, 1ug/ml) w/o ILT3Fc, stained with ILT3Fc-FITC
[10] = biological target: CD166 (activated leukocyte cell adhesion molecule, ALCAM) on human cells (human) (UniProt Q13740); assay: flow cytometry, CD3+ T cells, Control Treatment, cultured with ILT3Fc (50 ug/mL), stained with ILT3Fc-FITC
[11] = biological target: CD166 (activated leukocyte cell adhesion molecule, ALCAM) on human cells (human) (UniProt Q13740); assay: flow cytometry, Jurkat cells nucleofected with control vector, double staining anti-CD166 APC + ILT3Fc-FITC
[12] = biological target: CD166 (activated leukocyte cell adhesion molecule, ALCAM) on human cells (human) (UniProt Q13740); assay: flow cytometry, CD3+ T cells triggered with PWM (0.05ug/ml) in the presence of ILT3Fc (50 ug/mL), stained with ILT3Fc-FITC
[13] = biological target: CD166 (activated leukocyte cell adhesion molecule, ALCAM) on human cells (human) (UniProt Q13740); assay: flow cytometry, Jurkat cells nucleofected with CD166 over-expression plasmid, double staining anti-CD166 APC + ILT3Fc-FITC
[14] = biological target: CD166 (activated leukocyte cell adhesion molecule, ALCAM) on human cells (human) (UniProt Q13740); assay: flow cytometry, H9 cells infected with control adeno-virus (Adeno-Control) for 7 days, double staining anti-CD166 PE + ILT3Fc-FITC
[15] = biological target: CD166 (activated leukocyte cell adhesion molecule, ALCAM) on human cells (human) (UniProt Q13740); assay: flow cytometry, CD3+ T cells triggered with CD3/CD28 (5ug/ml, 1ug/ml) in the presence of ILT3Fc (50 ug/mL), stained with ILT3Fc-FITC
[16] = biological target: CD166 (activated leukocyte cell adhesion molecule, ALCAM) on human cells (human) (UniProt Q13740); assay: flow cytometry, CD166 KO H9 cells (CD166 gene knocked out: control cells without the target), double staining anti-CD166-PE + ILT3.Fc-FITC
[17] = biological target: CD166 (activated leukocyte cell adhesion molecule, ALCAM) on human cells (human) (UniProt Q13740); assay: flow cytometry, H9 cells with CD166 knocked down by CD166 shRNA adeno-virus (Adeno-siCD166) for 7 days, double staining anti-CD166 PE + ILT3Fc-FITC
[18] = biological target: CD166 (activated leukocyte cell adhesion molecule, ALCAM) on human cells (human) (UniProt Q13740); assay: flow cytometry, Jurkat cells pre-incubated with J4-81, then ILT3Fc-FITC
[19] = biological target: CD166 (activated leukocyte cell adhesion molecule, ALCAM) on human cells (human) (UniProt Q13740); assay: flow cytometry, Jurkat cells pre-incubated with CD6-Fc, then ILT3Fc-FITC
[20] = biological target: CD166 (activated leukocyte cell adhesion molecule, ALCAM) on human cells (human) (UniProt Q13740); assay: flow cytometry, Jurkat cells pre-incubated with CD166-Fc, then ILT3Fc-FITC

- inhibition of growth of tumor cell lines at 72 hours [1]: 50 to 90%
- percent of cells binding ILT3Fc [2]: 46%
- percent ILT3Fc binding [3]: 12%
- percent ILT3Fc binding [4]: 1%
- percent of cells binding ILT3Fc [5]: < 20%
- % cells in lower left quadrant (CD166- / ILT3Fc-FITC-) [6]: 3.57%
- % cells in lower right quadrant (CD166- / ILT3Fc-FITC+) [6]: 0.03%
- % cells in upper left quadrant (CD166+ / ILT3Fc-FITC-) [6]: 22.3%
- % cells in upper right quadrant (CD166+ / ILT3Fc-FITC+) [6]: 74.1%
- % cells stained with ILT3Fc-FITC [7]: 1.08%
- % cells stained with ILT3Fc-FITC [8]: 23.2%
- % cells stained with ILT3Fc-FITC [9]: 26.9%
- % cells stained with ILT3Fc-FITC [10]: 0.8%
- % cells in lower left quadrant (CD166- / ILT3Fc-FITC-) [11]: 30.6%
- % cells in lower right quadrant (CD166- / ILT3Fc-FITC+) [11]: 1.08%
- % cells in upper left quadrant (CD166+ / ILT3Fc-FITC-) [11]: 58%
- % cells in upper right quadrant (CD166+ / ILT3Fc-FITC+) [11]: 10.2%
- % cells stained with ILT3Fc-FITC [12]: 15.2%
- % cells in lower left quadrant (CD166- / ILT3Fc-FITC-) [13]: 13.4%
- % cells in lower right quadrant (CD166- / ILT3Fc-FITC+) [13]: 1.08%
- % cells in upper left quadrant (CD166+ / ILT3Fc-FITC-) [13]: 66.3%
- % cells in upper right quadrant (CD166+ / ILT3Fc-FITC+) [13]: 19.2%
- % cells in lower left quadrant (CD166- / ILT3Fc-FITC-) [14]: 6.33%
- % cells in lower right quadrant (CD166- / ILT3Fc-FITC+) [14]: 0.15%
- % cells in upper left quadrant (CD166+ / ILT3Fc-FITC-) [14]: 47%
- % cells in upper right quadrant (CD166+ / ILT3Fc-FITC+) [14]: 46.5%
- % cells stained with ILT3Fc-FITC [15]: 20.4%
- % cells in lower left quadrant (CD166- / ILT3Fc-FITC-) [16]: 96.5%
- % cells in lower right quadrant (CD166- / ILT3Fc-FITC+) [16]: 2.94%
- % cells in upper left quadrant (CD166+ / ILT3Fc-FITC-) [16]: 0.1%
- % cells in upper right quadrant (CD166+ / ILT3Fc-FITC+) [16]: 0.43%
- % cells in lower left quadrant (CD166- / ILT3Fc-FITC-) [17]: 50%
- % cells in lower right quadrant (CD166- / ILT3Fc-FITC+) [17]: 5.8%
- % cells in upper left quadrant (CD166+ / ILT3Fc-FITC-) [17]: 26.7%
- % cells in upper right quadrant (CD166+ / ILT3Fc-FITC+) [17]: 14.5%
Molecule: ILT3Fc (water-soluble recombinant protein: extracellular domain of human ILT3 affixed to the Fc portion of an immunoglobulin) (from UniProt Q8NHJ6 22-259; P01857 104-330) (Fc fusion)

- percent inhibition of ILT3Fc-FITC binding [18]: 28%
Molecule: anti-CD166 mAb J4-81 (antibody)

- percent inhibition of ILT3Fc-FITC binding [19]: 49%
B1: human CD6-Fc (Fc fusion, UniProt P30203 25-398, looked up, not shown: a dimerising Fc or GST)
chain: DQLNTSSAESELWEPGERLPVRLTNGSSSCSGTVEVRLEASWEPACGALWDSRAAEAVCRALGCGGAEAASQLAPPTPELPPPPAAGNTSVAANATLAGAPALLCSGAEWRLCEVVEHACRSDGRRARVTCAENRALRLVDGGGACAGRVEMLEHGEWGSVCDDTWDLEDAHVVCRQLGCGWAVQALPGLHFTPGRGPIHRDQVNCSGAEAYLWDCPGLPGQHYCGHKEDAGAVCSEHQSWRLTGGADRCEGQVEVHFRGVWNTVCDSEWYPSEAKVLCQSLGCGTAVERPKGLPHSLSGRMYYSCNGEELTLSNCSWRFNNSNLCSQSLAARVLCSASRSLHNLSTPEVPASVQTVTIESSVTVKIENKESRE

- percent inhibition of ILT3Fc-FITC binding [20]: 30%
B2: human CD166Fc (Fc fusion, UniProt Q13740 28-526, looked up, not shown: a dimerising Fc or GST)
chain: WYTVNSAYGDTIIIPCRLDVPQNLMFGKWKYEKPDGSPVFIAFRSSTKKSVQYDDVPEYKDRLNLSENYTLSISNARISDEKRFVCMLVTEDNVFEAPTIVKVFKQPSKPEIVSKALFLETEQLKKLGDCISEDSYPDGNITWYRNGKVLHPLEGAVVIIFKKEMDPVTQLYTMTSTLEYKTTKADIQMPFTCSVTYYGPSGQKTIHSEQAVFDIYYPTEQVTIQVLPPKNAIKEGDNITLKCLGNGNPPPEEFLFYLPGQPEGIRSSNTYTLTDVRRNATGDYKCSLIDKKSMIASTAITVHYLDLSLNPSGEVTRQIGDALPVSCTISASRNATVVWMKDNIRLRSSPSFSSLHYQDAGNYVCETALQEVEGLKKRESLTLIVEGKPQIKMTKKTDPSGLSKTIICHVEGFPKPAIQWTITGSGSVINQTEESPYINGRYYSKIIISPEENVTLTCTAENQLERTVNSLNVSAISIPEHDEADEISDENREKVNDQA
